Assay [1] has as its target murine PD-1-transmembrane PD-1-CD28 fusion protein (PTM) (murine). The assay is described as follows: cell-based or functional assay.
Assay [2] deals with T1, recombinant murine PD-L1 Fc chimera (R&D Systems) (murine, UniProt Q9EP73 19-238).
T1 construct: also called recombinant PD-L1; recombinant PD-L1-Fc; not shown: Fc part of the bought R&D Systems chimera (detected with anti-human IgG)
In words: flow cytometry; transduced murine T cells incubated with recombinant PD-L1-Fc. (In flow cytometry, cells or beads pass a laser one at a time.)

T1 sequence (Q9EP73 19-238, change not shown): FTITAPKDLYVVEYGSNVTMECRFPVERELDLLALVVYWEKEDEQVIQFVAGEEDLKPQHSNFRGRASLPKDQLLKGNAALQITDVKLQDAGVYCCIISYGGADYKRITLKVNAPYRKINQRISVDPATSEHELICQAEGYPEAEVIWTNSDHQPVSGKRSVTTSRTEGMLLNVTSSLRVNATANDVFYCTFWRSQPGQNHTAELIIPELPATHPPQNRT

Molecule “full length murine PD-L1 on Panc02-OVA-PD-L1 tumor cells (from UniProt Q9EP73 19-290) (ligand)” showed an IFN-γ release in coculture of PTM-transduced OT-1 T cells with tumor cells in assay [1] of 545 ng/mL.

B1: murine PD-1-transmembrane PD-1-CD28 fusion protein (PTM) (receptor)
chain: LEVPNGPWRSLTFYPAWLTVSEGANATFTCSLSNWSEDLMLNWNRLSPSNQTEKQAAFCNGLSQPVQDARFQIIQLPNRHDFHMNILDTRRNDSGIYLCGAISLHPKAKIEESPGAELVVTERILETSTRYPSPSPKPEGRFQGMVIGIMSALVGIPVLLLLAWALNSRRNRLLQSDYMNMTPRRPGLTRKPYQPYAPARDFAAYRP
notes: Expressed on retrovirally transduced primary murine T cells; The entry starts at PD-1 residue 1, so it includes the signal peptide; also called mPTM; PTM fusion protein
For the molecule B1, the binding result in assay [2] is given as “binds”.

Source of the values: patent publication US20220169699A1 (published 2022).
